From paper PMC2734569, “Functional mapping of the fission yeast DNA polymerase δ B-subunit Cdc1 by site-directed and random pentapeptide insertion mutagenesis” (BMC Molecular Biology, 2009)

What was measured:
Test in all cases: two-hybrid; LexA-Cdc1 bait (pBTM116 or pBTM116BN) with Gal4 activation domain-Cdc27 prey (pGAD2F-Cdc27) in S. cerevisiae CTY10-5d; ONPG liquid culture beta-galactosidase assay, mean of triplicates, as percent of wild-type Cdc1
Details in all cases: partners not purified
[1] = biological target: T1, Cdc1-J10 (Schizosaccharomyces pombe, UniProt P87324 1-462, Tyr-ArgGlyThrProTyr-Met)
T1 construct: Cdc1, S. pombe, with a pentapeptide inserted after residue 77; also called J11; E6; source: yeast two-hybrid fusion, in S. cerevisiae CTY10-5d
T1 sequence (looked up): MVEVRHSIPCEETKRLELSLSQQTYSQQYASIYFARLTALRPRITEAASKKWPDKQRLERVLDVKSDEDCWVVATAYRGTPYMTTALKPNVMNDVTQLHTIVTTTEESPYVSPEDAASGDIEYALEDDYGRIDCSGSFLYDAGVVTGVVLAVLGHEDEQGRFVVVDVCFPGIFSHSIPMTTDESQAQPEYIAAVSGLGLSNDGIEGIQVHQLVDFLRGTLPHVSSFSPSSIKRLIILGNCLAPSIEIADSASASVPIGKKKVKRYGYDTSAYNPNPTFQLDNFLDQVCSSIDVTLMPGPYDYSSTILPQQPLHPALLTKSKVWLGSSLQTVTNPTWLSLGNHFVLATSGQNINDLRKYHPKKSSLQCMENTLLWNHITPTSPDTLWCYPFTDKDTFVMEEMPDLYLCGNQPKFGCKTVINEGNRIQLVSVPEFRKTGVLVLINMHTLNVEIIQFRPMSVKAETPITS

[2] = biological target: T2, Cdc1-J6 (Schizosaccharomyces pombe, UniProt P87324 1-462, Tyr-GlyValProHisTyr-Gly)
T2 construct: Cdc1, S. pombe, with a pentapeptide inserted after residue 124; source: yeast two-hybrid fusion, in S. cerevisiae CTY10-5d
T2 sequence (looked up): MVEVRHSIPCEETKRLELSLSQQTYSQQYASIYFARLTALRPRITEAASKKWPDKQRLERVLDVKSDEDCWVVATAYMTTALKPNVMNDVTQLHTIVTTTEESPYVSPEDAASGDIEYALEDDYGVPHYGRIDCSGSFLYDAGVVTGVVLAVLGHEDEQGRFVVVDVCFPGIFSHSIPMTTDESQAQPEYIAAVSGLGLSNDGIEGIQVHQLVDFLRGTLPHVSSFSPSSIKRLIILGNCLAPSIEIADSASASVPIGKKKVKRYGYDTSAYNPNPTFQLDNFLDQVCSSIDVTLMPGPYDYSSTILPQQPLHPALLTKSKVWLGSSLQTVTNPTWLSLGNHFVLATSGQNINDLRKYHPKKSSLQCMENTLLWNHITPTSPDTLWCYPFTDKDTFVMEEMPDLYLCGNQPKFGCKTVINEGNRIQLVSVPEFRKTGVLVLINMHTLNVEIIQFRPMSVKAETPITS

[3] = biological target: T3, Cdc1-J9 (Schizosaccharomyces pombe, UniProt P87324 1-462, Met-ArgGlyThrProMet-Thr)
T3 construct: Cdc1, S. pombe, with a pentapeptide inserted after residue 174; source: yeast two-hybrid fusion, in S. cerevisiae CTY10-5d
T3 sequence (looked up): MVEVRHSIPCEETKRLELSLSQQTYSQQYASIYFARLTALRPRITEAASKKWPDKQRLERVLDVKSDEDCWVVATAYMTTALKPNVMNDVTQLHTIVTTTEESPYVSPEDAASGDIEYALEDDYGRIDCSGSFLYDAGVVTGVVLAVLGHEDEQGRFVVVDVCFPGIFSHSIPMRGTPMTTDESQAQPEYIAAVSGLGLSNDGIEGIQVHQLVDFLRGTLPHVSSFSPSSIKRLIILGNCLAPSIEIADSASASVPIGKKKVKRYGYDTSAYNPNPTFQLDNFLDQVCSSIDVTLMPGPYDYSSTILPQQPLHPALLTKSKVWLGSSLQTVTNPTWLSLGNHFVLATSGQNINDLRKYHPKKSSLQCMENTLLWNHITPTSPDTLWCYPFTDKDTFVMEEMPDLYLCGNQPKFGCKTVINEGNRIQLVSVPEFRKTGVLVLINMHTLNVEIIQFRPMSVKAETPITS

[4] = biological target: T4, Cdc1-A4 (Schizosaccharomyces pombe, UniProt P87324 1-462, Pro303Ala)
T4 construct: Cdc1, S. pombe, point mutant; source: yeast two-hybrid fusion, in S. cerevisiae CTY10-5d
T4 sequence (looked up): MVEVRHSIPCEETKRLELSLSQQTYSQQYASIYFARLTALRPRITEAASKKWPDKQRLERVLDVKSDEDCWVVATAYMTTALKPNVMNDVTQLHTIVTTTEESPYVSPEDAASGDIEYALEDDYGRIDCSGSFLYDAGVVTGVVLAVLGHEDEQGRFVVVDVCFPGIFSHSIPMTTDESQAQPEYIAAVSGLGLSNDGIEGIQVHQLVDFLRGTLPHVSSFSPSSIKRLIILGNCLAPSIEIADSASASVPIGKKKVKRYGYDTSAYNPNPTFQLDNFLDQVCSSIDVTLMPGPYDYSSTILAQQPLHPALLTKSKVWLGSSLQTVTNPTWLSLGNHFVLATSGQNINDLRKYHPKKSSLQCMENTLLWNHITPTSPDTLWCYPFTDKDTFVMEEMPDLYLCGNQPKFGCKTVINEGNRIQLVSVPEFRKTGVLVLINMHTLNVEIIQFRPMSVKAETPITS

B1: Cdc27 (fission yeast DNA polymerase delta C-subunit) (natural protein, Schizosaccharomyces pombe, UniProt P30261 1-372, looked up)
chain: MEEWRNFLDIKVINESSLVTVDNLSLQLDISSEKAQEYLNMFYQGNDFLYPIYLIHGQPIDDEINLEIDEESQPISNFPVLQYILCDKSSLQEKQSRLKSGYKTVIFALSSAPLSDFDELLPAVYEIREKDVLYKKEDADKYGFIFNENSVPRVLKKAPSTHSPQLSVPSKTSTIDKTDTRSTEKTKGKDIFSNARNQKGNSSRKNKKAPLENHKEKEPLLPKEEKLSEQAKRERDDLKNIMQLEDESVSTTSVHDSEDDNLDSNNFQLEIGTEAKSAAPDEPQEIIKSVSGGKRRGKRKVKKYATTKDEEGFLVTKEEEVWESFSEDENISTGTSNVVRNKPTTVNIATKKKNTAQSKPQQKSIMSFFGKK
notes: DNA polymerase delta C-subunit Cdc27, S. pombe; prey plasmid pGAD2F-Cdc27; also called pGAD2F-Cdc27; source: yeast two-hybrid fusion, in S. cerevisiae CTY10-5d
[1]
  two-hybrid beta-galactosidase activity, % of wild-type Cdc1: 30%
[2]
  two-hybrid beta-galactosidase activity, % of wild-type Cdc1: < 1%
[3]
  two-hybrid beta-galactosidase activity, % of wild-type Cdc1: 102%
[4]
  two-hybrid beta-galactosidase activity, % of wild-type Cdc1: 31%
